Data on one molecule can be found in patent US20250051425A1 (YALE UNIVERSITY, published 2025).

Assay [1] has as its target T1, Influenza A H1N1 (A/Puerto Rico/8/1934) Hemagglutinin/HA Protein (ECD, His Tag) (Influenza A H1N1 (A/Puerto Rico/8/1934), UniProt P03452 18-528).
T1 construct: extracellular domain; Bought; also called influenza A/PR8 (H1N1) hemagglutinin (HA); H1N1 HA
The assay is described as follows: ELISA, coated antigen. (An ELISA detects its analyte on a solid surface through an enzyme-linked reagent.)

For the next assay, the target named is T2, SARS S1 protein, His Tag (SARS-CoV-1, UniProt P59594 14-667).
T2 construct: domain: S1; also called recombinant severe acute respiratory syndrome coronavirus 1 (SARS-CoV-1) spike protein
The assay is described as follows: ELISA, coated antigen, mAb 3 µg/mL.

T1 sequence (P03452 18-528): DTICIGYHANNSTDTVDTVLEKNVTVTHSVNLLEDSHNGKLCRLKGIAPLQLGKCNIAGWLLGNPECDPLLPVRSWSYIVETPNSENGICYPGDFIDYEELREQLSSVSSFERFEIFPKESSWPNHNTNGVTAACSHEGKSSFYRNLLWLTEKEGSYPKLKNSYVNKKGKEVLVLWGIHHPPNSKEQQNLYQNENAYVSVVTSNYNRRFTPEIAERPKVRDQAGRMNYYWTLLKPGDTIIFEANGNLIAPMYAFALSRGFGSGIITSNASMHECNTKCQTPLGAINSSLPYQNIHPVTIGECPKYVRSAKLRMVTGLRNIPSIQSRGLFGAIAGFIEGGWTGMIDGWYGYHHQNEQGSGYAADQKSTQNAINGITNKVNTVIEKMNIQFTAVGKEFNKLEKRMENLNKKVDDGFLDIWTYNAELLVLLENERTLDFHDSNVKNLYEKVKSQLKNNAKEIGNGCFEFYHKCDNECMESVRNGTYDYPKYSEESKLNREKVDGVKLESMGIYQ

B1: IGHV6-3 monoclonal antibody (mouse IgG2c, Ig kappa) (antibody, V domains shown)
VH: EVKLEESGGGLVQPGGSMKLSCVASGFTFSNYWMNWVRQSPEKGLEWVAQIRLKSDNYATHYAESVKGRFTISRDDSKSSVYLQMNNLRAEDTGIYYCTDITGPIDYWGQGTTLTVSS
VL: DIKMTQSPSSMYASLGERVTITCKASQDINSYLSWFQQKPGKSPKTLIYRANRLVDGVPSRFSGSGSGQDYSLTISSLEYEDMGIYYCLQYDEFPYTFGGGTKLEIK
notes: also called IGHV6-3 mAb; Mouse IGHV6-3 mAb, g2c
Take B1: the binding result is “binds” in assay [1] and “binds” with SARS S1 protein, His Tag.
